Assay results from PMC4027207, “Molecular dissection of the domain architecture and catalytic activities of human PrimPol” (Nucleic Acids Research, 2014).

Target: T1, PrimPol372-560/ZF-KO (Homo sapiens, UniProt Q96LW4 372-560, C419A;H426A)
T1 sequence: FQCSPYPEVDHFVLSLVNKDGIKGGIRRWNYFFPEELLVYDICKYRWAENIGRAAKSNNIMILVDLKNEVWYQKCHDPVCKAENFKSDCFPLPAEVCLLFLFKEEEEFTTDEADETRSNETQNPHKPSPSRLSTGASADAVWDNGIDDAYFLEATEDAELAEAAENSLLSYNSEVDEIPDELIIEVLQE
Assay: EMSA; 10 mM Mg2+; 40 nM DNA; no binding, protein 0.05-20 uM; 10 mM Bis-Tris-Propane-HCl pH 7.0, 10 mM MgCl2, 1 mM DTT, 40 nM DNA, 25°C, 60 min; 5% polyacrylamide gel in 0.5x TBE
Conditions: protein: recombinant; tags: His (Ni-NTA purified); label: 5'-Hex

TGTCGTCTGTTCGGTCGTTCGGTCTTCAAGGCTGTTGTGCGCCCTGCGCG (ssDNA) [HP-50 ssDNA (sequence 7)]
binding result: no binding
